Assay results published in the nanobody polyreactivity screen of Harvey et al. (2022).

Assay: yeast display, Sf9 membrane polyspecificity reagent, FACS + sequencing; frameworks hold sequencing errors
In short: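 After 36–48 hours of galactose induction, yeast (Saccharomyces cerevisiae BJ5465) displaying a synthetic nanobody library were stained at 4 °C for 1 hour with 10% biotinylated, detergent-solubilized Sf9 membrane reagent. Streptavidin microbeads enriched the stained cells before FACS sorting into low and high (top ~1%) gates on anti-HA and streptavidin fluorescence. Each clone's polyreactivity label reflects its gate of origin.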

| Sequence | polyreactivity (PSR sort gate) |
| --- | --- |
| QVQLVESGGGLVQAGGSLRLSSAASGRIFHPYAMGWYRPAPGQERELVAAITNSGGITYADSVKGRFTISRGNAKNTVYLQMNSLKPEDTAVYYCNTATNRFHYKYRKPYDYWGQGTQVTVSS | low polyreactivity |
| QVQLVYTLGGLDQAGGSLRVSCYASGRTFVYYPMGWYRQAPGKERELVAAITRSGGRTYYADSVKGRFTISRDNAKNTVYLQKYSMKPEETAVYYCAARYCDNPYWFDYWGQGTQVTVSS | high polyreactivity |
| QVQLVESGGGLVQAGGSLRLSCAASGSIFYRYAMGWYRQAPGKERELVAAISFRTGSTYYADSVKGRFTISRDNAKNTVYFQMNSLKPEDTAVYYCAAEQLSTLRQRFDSWGQGTQVTVSS | high polyreactivity |
| QVQLVESGGGLVQAGGSLRLSCAASGFTFTAYAMGLYRKATGKERELVAGISRRGASTYYADSVKGRFTISRDYAKNTVYLQMNSLKPEDTAVYYCAALGKYIVAWSGDYWGQGTQVTVSS | low polyreactivity |
| QVQLVESGGGLVQAGGSLSLTCAASGRIFSYYAMGWYRQAPGKERELVAGISRGTSTYYADSVKGRFTISRDNAKNTVYLQMNSLKPEDTAVYYCAADYFSYYSPYRYGYWGQGTQVTVSS | high polyreactivity |
| QVQLVESGGGLVQAGGSLRLSCAASGSTFVPNTMGWYRQAPGKDRELVAGITSGGSTYYADSVKGRFTISRDNAKNTVYLQMNSLKPEDTAVYYCAAGKHVTFSYEYRMDYWGQGSQVTVSS | low polyreactivity |
| QVQLVESGGCLVQAGGSLRLSCAASGRIFGSYTKGWYRQAPGKERELVAAISDSGDSTYADSVKGRFTISRDNAKNTVYLQMNSLKPEDTAVYYCNAKSGSLAGNEYDYWGQGTQVTVSS | low polyreactivity |
| QVQLVESGGGLVQAGGSLRLSCAASGLTFFGYTMGWYREAPGKEREFVADITWSGGSTYYADSVKGRFTISRDNAKNTVYLQMNSLKPEDTAVYYCSVAPPNWDPFVDDTYLMDYWGQGTQVTVSS | low polyreactivity |
| QVQLVESGGGLVQAGGSLRLSCAASGRIFSFYAMGWYRQSPGKERELVATISDGGATTYYADSVKGRFTISRDNAKNTVYLQMNSLKPEDTAVYYCAADKRGRPGLPDYDSWGQGTQVTVSS | low polyreactivity |
| QVQLVESGGGLVQAGGSLRLSCAASGRIWSNAMGWYRQAPGKERELVAVISSRGGSTYYADSVKGRFTISRDNAKNTVYFQMNSLKPEDTAVYYCAARQRAKYNYWGQGTQVTVSS | high polyreactivity |
| QVQLVESGGGLVQAGGSLRLSCAASGLTLYLYTMGWYRQAPGTERELVASIDSGTSTKYADSVKGRFTISRDNAKNTVYLQMNSLKPEDTAVYYCAAGVWVTRYFGYYYWGQGTQVTVSS | low polyreactivity |
| QVQLVESGGGLVQAGGSLRLSCAASGSTFIRNAMGWYRQAPGKERELVAAISSSGGRTYYADSVKGRFTISRDNAKNTVYLQMNSLKPEDTAVYYCAARAVGAYYSSYSHGAGYYYWGQGTQLTVSS | high polyreactivity |
| QVQLVESGGGLVQAGGSLRLSCAASGNTFGNYGMGWYRQAPGKEREFVAAITSRGTSTYYADSVKGRFTISRDNAKYTVYLQMNSLKPEDTAVYYCNARPRYKYPRYDYWGQGTQVTVSS | high polyreactivity |
| QVQLVESGGGLVQAGGSLRLSCAASEFTFLLYAMGWYRQAPGKERELVAAISRTGGSTYYADSVKGRFTISRDNAKKTVYLQMNSLNPEDTAVYYCNAAISRAWVSYYGSSSRYDYWGQGTQVTVSS | low polyreactivity |
| QVQLVESGGGLVQAGGSLRLSCAASGRIFSYYDMGWYRQAPGKERELVAAITWGGGSTYYADSLKGRFTISRDNAKNTVYLHMNSLKPEDNAVFYSAADWSPSIWEYDYWGQGTEVTVSS | low polyreactivity |
| QVQLVESGGGLVQAGGSLRLSCAASGRTFSVYAKGWYRQAPGKERELVAGITSGGSTNYADSVKGRFTISRDNAKNTVYLQMNSLKPEDTAVYYCAAENVYAGFGFVSIGDYWGHGTQVTVSS | low polyreactivity |
| QVQLVESGGGLVQAGGSLRLSCAASGRIFAGYAMGWYRQAPGKERELVATITRGGSTNYADSVKRPFTISRDNAKNTVYLQMNSLKPDDTAVYYCNADIRRHGGYAHEYWGQGTQVTVSS | low polyreactivity |
| QVQLVESGGRLVQSGGSLRLSCAPSGSIFLRNAMGWYRQAPGKEREFVASITWNGASTSYADSVKGRFTISRDYAMNTVYLQMNSLKPEDTAVYFCAAVTVQDSNLKYGYWGQGTQVTVSS | low polyreactivity |
| QVQLVESGGGLVQAGGSLRLSCAASGRIFQYYTMGWSRQAPGKERELVAAITRSGGSTYYADSVKGRFTISRDNAKNTVYLQMNSLKPEDTAVYYFNADTRVKLPWYYTFDYLGQGTQVTVSS | low polyreactivity |
| QVQLVESGGGLDQARGSLRLSCAASGRTFVLNAMGWYRQAPGKERELVAAITLGGGSTYADSVKGRFTISRANAKNTVYLQMNSLKPEDTAVYYCAADFHYPYFEYWGQGTQVTVSS | low polyreactivity |
| QDQLVESGGGLVQAGGSLRLSCAASGSTFPKYAMGWYRQAPGKERELVASISVTTGSTYYADSVKGRFTISRDNAKNTVYLQMNSLKPEDTAVYYCPKRTYSRKFRGAYNYWGQGTQVTVSS | high polyreactivity |
| QVQLVESGGGLVQAGGSLRLTCAASGSTFYLNAMGWYRQATGKERELVAAITVSGGSTYYADSVKGRFTISRDNAKNTVYLQMNSLKPVDTAVYYCARELLSPTYQRWYYYWGQGTQVTVSS | low polyreactivity |

| Sequence | polyreactivity (PSR sort gate) |
| --- | --- |
| QVQLVESAAGLVQAGGSLRISCAASGYTFWLYAMGWYRQAPGKEREFVAAISTSGGSTYADSVKGRFTISRDNAKNTVYLQMNSLKPEDTAVYYCNAGYLLYYDYHLFYWGQGTQVTVSS | low polyreactivity |
| QVHLVESGGGLVQAGGSLRLSCAASGITFYRFVLGGYRQAPGKEWELDAAISRTGGYTYYADSVKGRFTLSRDNAKNTVYLQMNSLKPVDTAVYYCAAATSTGIYDYWGQGTQVTGSS | high polyreactivity |
| QVQLVESGGGLVQAGGSLRLSCAASGFIIQGNAMGWYRQAPGKERELVAAISSCVSTYYADSVKGRFTISRDNAKNTVYLQMNSLKPEDTAVYYCNAGFPLSLWLGDYWGQGTHVTVSS | low polyreactivity |
| QVQLVESGGGLVQAGGSLRLSCAASGRIFNYYAMGWYRQAPGKERELVAAINSGGSTYADSVKGRFTISRDNAKNTVYLQMNSLKPEDTAVYYCAKDGQLQSVRERPSGYDHWGQGTQVTVSS | low polyreactivity |
| QVQLVESGGGLLQAGGSLRLSCAASGRTFGSYAKGWYRQAPGKERELVAGIRSDDITHYADSVKGRFTISRDNAKNTVYLQMNSLKPEDTAVYYCAKDYKCIATEGAFDYWGQGTQVTVSS | low polyreactivity |
| QVQLVESRGGLVQAGGSLRLSFAASGIIFADYAMGWYRQAPGKERELVAAISSGDSTYYADSVKGRFTISRDNAKNTVYLQMNSLKPEDTAVYYCAARLYRNKYRIAKMNYWGQGTQVTVSS | high polyreactivity |
| QVQLVESGGGLVQAGCSLRLSCAASGRTFYPYAMGWYRQAPRKERELVAAINWSGTSTYYADSVKGRFTISRDNAKNTVYLQMNSLKTEDTAVYYCAAKQYPVLHYSLTEADMDYWGQGTQVTVSS | low polyreactivity |
| QVQLVESGGGLVQAGGSLRLSCAAYGSTFDRNAMGWYRQAPGKERDLVAAISWRGGSTYYSDSVKGRFTISRDNAKNTVYLQMNSLKPDDTAVYYCNKVVTWQGPYDYWGQGTQVTVSS | high polyreactivity |
| QVQLVESGGGLVQAGCSLRLSCAASGSIFTNYGMGWYRQAPGKERELVADIRARSGSTYYADSVKGRFTISRDNAKNTVYLQMNSLKPEDTAVYYCAARRTSYRFDYSAGYRYGYWGQGTQVTVSS | high polyreactivity |
| QVQLVESGGGLVQAGGSLRLSCAASGFIFRWYTMGWYRQAPGKERELVAAISWRSGSTSYADSVMGRFTISRDNAKNTVYFQMNSLKPEDSAGYYCNADYSSFWTSYDYWGQGTQVTVSS | high polyreactivity |
| QVQLVESGGGLVQAGGRLRLICAAYGSTFSLYALGWYRQAPGKERELVADINSGGGTYYADSVKGRFTISRDNAKNTVYLQMNSVKPEDTAVYYCNAPVARGEASYYWGHGTQVTVSS | high polyreactivity |
| QVQLVESGGGLVQAGGSLRLSCAASGFIFTKYTMGWYRQAPGKERELVAAIRSDGVRTYYADSVKGRFTISRDNAKNTVYLQMNSLKPEDTAVYYCNRVSAVRIGAGDYWGQGTQVTVSS | high polyreactivity |
| QVQLVESGGGLVQAGGSLRLSCAASGRTFAVNGKGWYRPAPGKERELVAAISSGGSTNYADSVKARFTISRDNAKNTVYLQLNSLKPEDTAVYYCAADYTRAHISYYYWGQGTQVTVSS | high polyreactivity |
| QVQLVESGGGLVQAGGSLRLSCAASGRTFKTYTMGWYRQEPGKERELVAVISSGGGSTNYADSVKGRFTISRDKAKNTVNLQMNSRKPEDTAVYYCAARKPGRPKYRYDYWGQGSQVTVSS | low polyreactivity |
| QIQLVESGGGLVQAGGSLRLSCAASGSIFSGYAMGWYRQAPGKERELVAAITSGGSTDYADSVKGRFTISRDNAKNTVYLQMNSLKPEDTAVYYCAAEGGYSSYGYDYWGQGTQVTVSS | low polyreactivity |
| QVQLVESGVCIVQAGGSLRLSGADSGNTLIQYAMRWYRQPHGKERELVAGISGSDDSTYYADSVKGRFTISRDNAKNTVYLQMNSLKPEDTAVYYCAALSISPSRTGYYWGQGTQVTVSS | low polyreactivity |
| QVQLVDSGGGLVQAGGSLRLRCADSGSIFRDNAMGWYRQAPGKERELVADINYRDGDTFYADSVKGRFTISRDNAKNTVYLLMNSLKPEDNAVYYCAAEWDYPWWRIVAVYGYEYWGQGTQVTVSS | low polyreactivity |
| QVQLVESGGGLVQAGGSLRLSCAASGRIFSTYTMGWYRQAPGKERELVAAIRANGGSTYYADSVKGRFTISRDNAKNTVYLQMNSLKPEVTAVYYCNARRPIGTGYYWGQGTQVTVSS | high polyreactivity |
| QVQLVESGGGLVQAGGSLRLSCAASGITFVGNDMGWYRQAPGKERELVATISSSGTRTYYADSVKGRFTISRDNAKNTVYLLMNSLKPEDTAVYYCAARWRSYITYWFDYWGQGTQVTVSS | low polyreactivity |
| QVQLVESGGGLVQAGVSHRLSCAASGRTFPGNAMGWYRQAPGKEREFVAAISYSGGRTYYADSVKGRFTISRDNAKNTVYLLMNSLKPEDTAVYYCAKRIVQPSVAAYYYWGLGTQVTVSS | high polyreactivity |
| QVQLVESGGGLVQAGGSLRLSCDASGITSHWYVMGWYRQAPGKERELVAAINSSGGRTSYADSVKGRFTISRDNAKNTVYLQMNSLKPEYTAVYYCAAGYTHSYFLGATGKVDYWGQGTQVTVSS | low polyreactivity |
